For experiment [1], the target named is T1, human folate receptor alpha (hFRα), recombinant protein (human, UniProt P15328 25-233).
T1 construct: Bought recombinant proteins (His-tagged, or biotinylated via Avi-tag, e.g. AcroBiosystems FO1-H82E2, F01-H52H1); also called hFOLR1; huFOLR1
The experiment in a line: ELISA, periplasmic extract. The source says:
(§1) From the lymphocytes of each llama a separate VHH library was constructed to select and screen for the presence of antigen-specific VHHs. To this end, total RNA from peripheral blood lymphocytes was used as template for first strand cDNA synthesis with an oligo ^{∘}dT) primer. Using this cDNA, the VHH encoding sequences were amplified by PCR, digested with PstI and NotI, cloned into the PstI and NotI sites of the phagemid vector pMECS and transformed into E. coli to generate VHH libraries. To enrich these libraries for FRα ^{∘}or FOLR1, as used interchangeably herein)-specific VHHs, a combinatorial panning approach on recombinant human and mouse FOLR1 was used followed by random selection and screening of clones by ELISA for the presence of antigen-specific VHHs in their periplasmic extracts ^{∘}PEs). In order to gauge the cross-reactivity for human and mouse FOLR1, each clone was tested on both antigens.
(§2) After panning of core76/77 on human and mouse folate receptor alpha ^{∘}FRα), […] were randomly selected from the second and third rounds and analyzed by ELISA on both human and mouse FRα for the presence of FRα-specific VHHs in their periplasmic extracts ^{∘}PE). This led to the identification of 98 hits. For these 98 hits, the off-rate ^{∘}koff) in the PE was determined by biolayer interferometry ^{∘}BLI) on both mouse and human FRα that was directly immobilized onto AR2G biosensors. The off-rates were calculated using a 1:1 binding model. […] Abbreviations: SE: standard error.

The target in experiment [2] is T2, mouse folate receptor alpha (mFRα), recombinant protein (mouse, UniProt P35846 25-232).
T2 construct: Bought recombinant proteins (e.g. biotinylated, Acro Biosystems FO1-M82E9); also called mFOLR1; Ms FOLR1
T2 sequence (P35846 25-232 limits assumed): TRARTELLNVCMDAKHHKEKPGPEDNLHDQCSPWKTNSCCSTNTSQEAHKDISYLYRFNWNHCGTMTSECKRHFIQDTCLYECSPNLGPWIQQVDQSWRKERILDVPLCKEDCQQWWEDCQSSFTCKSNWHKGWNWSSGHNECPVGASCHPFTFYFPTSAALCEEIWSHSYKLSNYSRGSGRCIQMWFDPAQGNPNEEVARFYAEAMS
The experiment in a line: ELISA, periplasmic extract.
Excerpt: as §1, §2

In experiment [3] the target is T1, human folate receptor alpha (hFRα), …. The experiment in a line: BLI, FRα on AR2G biosensors, 1:1 model. As for the experimental part:
(§3) As a next step, the kinetic binding constants were determined using BLI ^{∘}Table 3). […] Similar to the ELISA results ^{∘}FIG. 1A-B), higher binding affinities were measured for mouse FRα than human FRα, with KD values […] one order of magnitude in most cases. […] For 3HFO28, binding to human FRα could not be confirmed by BLI, and this VHH was excluded from further characterization.
(§4) The kinetic parameters were calculated using a 1:1 binding model.

The target in experiment [4] is T2, mouse folate receptor alpha (mFRα), …. Description: BLI, FRα on AR2G biosensors, 1:1 model. As for the experimental part:
as §3, §4

In experiment [5] the target is T3, human folate receptor beta (FRβ) (human, UniProt P14207 17-230, limits assumed).
T3 construct: also called hFOLR2; human FOLR2
T3 sequence (P14207 17-230 limits assumed): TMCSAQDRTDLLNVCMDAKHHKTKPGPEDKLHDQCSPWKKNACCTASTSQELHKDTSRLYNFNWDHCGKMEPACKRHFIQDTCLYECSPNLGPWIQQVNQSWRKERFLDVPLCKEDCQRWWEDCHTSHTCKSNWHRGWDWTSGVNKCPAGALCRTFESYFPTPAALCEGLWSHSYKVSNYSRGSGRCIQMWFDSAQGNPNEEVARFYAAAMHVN
Description: method not named (follows the ELISA of Example 3).

Experiment [6] addresses T1, human folate receptor alpha (hFRα), …. Description: BLI, periplasmic extract, FRα on AR2G biosensors. As for the experimental part: as §2
Experiment [7] has as its target T2, mouse folate receptor alpha (mFRα), …. The experiment in a line: BLI, periplasmic extract, FRα on AR2G biosensors. As for the experimental part: as §2
Experiment [8] has the same target. Description: ELISA on recombinant mouse FOLR1, cMyc tag detection, normalised binding, non-linear fit. The procedure:
(§5) Data were normalized and technical replicates were plotted as mean±SD. Data were fitted by non-linear regression and the half-maximal effective concentration ^{∘}EC50) was calculated using GraphPad Prism 9 software. ^{∘}FIG. 1C and FIG. 1D) Binding affinity determination of anti-FOLR1 VHHs for native FOLR1. Mouse ^{∘}FIG. 1C) or human FOLR1 FIG. 1D) was overexpressed on HEK293T cells and binding of the anti-FOLR1 VHHs was assessed using flow cytometry. The mean fluorescence intensity ^{∘}MFI) of the phycoerythrin signal was plotted for each VHH concentration. Data were fitted by non-linear regression using GraphPad Prism 9 software. ^{∘}FIG. 1E) Determination of the competition of representative family members with folic acid ^{∘}FA) using ELISA. Mouse FOLR1 was coated on the plate and was pre-incubated with or without 100 μM FA before adding the VHHs. Data were fitted by non-linear regression using GraphPad Prism 9 software.
(§6) In a first step, binding affinity and cross-reactivity of the purified VHHs to human and mouse FRα was assessed by ELISA, using detection of the cMyc tag ^{∘}FIG. 1A-B). […] 2HFO19 ^{∘}family 1) was the best binder of all tested VHHs to both mouse and human FRα with an EC₅₀ of 0.1 nM and 0.4 nM respectively ^{∘}FIG. 1A-B).

For experiment [9], the target named is T1, human folate receptor alpha (hFRα), …. Description: ELISA on recombinant human FOLR1, cMyc tag detection, normalised binding, non-linear fit. The procedure:
as §5, §6

Experiment [10] deals with T4, mouse folate receptor alpha expressed on transfected HEK293T cells (mouse, UniProt P35846 25-232).
T4 construct: also called cell-expressed mouse FRα
T4 sequence (P35846 25-232 limits assumed): as the sequence (P35846 25-232 limits assumed) above
The experiment in a line: flow cytometry on HEK293T cells overexpressing mouse FOLR1, His tag detection, PE MFI, non-linear fit. As for the experimental part: as §5

Experiment [11] concerns the target T5, human folate receptor alpha expressed on cells (transfected HEK293T, HeLa, MCF7, MDA-MB-231) (human, UniProt P15328 25-234).
T5 construct: HEK293T transiently transfected with human FOLR1; also called native human FRα; cell-expressed human FOLR1
Description: flow cytometry on HEK293T cells overexpressing human FOLR1, His tag detection, PE MFI, non-linear fit. The procedure: as §5

T1 sequence (P15328 25-233 limits assumed): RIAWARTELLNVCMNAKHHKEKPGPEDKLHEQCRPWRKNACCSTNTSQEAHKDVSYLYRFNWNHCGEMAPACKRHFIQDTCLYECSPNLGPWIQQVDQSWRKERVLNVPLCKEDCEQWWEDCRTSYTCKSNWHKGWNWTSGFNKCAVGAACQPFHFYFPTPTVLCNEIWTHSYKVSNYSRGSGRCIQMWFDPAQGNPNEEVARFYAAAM
T5 sequence (P15328 25-234 limits assumed): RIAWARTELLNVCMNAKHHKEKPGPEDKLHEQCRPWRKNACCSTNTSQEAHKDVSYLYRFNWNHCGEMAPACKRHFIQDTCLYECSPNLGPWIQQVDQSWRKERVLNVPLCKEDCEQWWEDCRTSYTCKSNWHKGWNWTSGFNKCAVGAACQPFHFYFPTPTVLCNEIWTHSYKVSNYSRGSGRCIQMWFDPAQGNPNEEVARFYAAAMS

B1: VHH 2MFR7 (family 1) (VHH)
VHH: QVQLQESGGGLVQPGGSLRLSCAASGFPFSTYYMSWVRQAPGKGLEWVSGINSNGGVIDYADSVKGRFTISRDNAKNTLYLQLNSLKPEDTALYFCARGRAFVATMPSSLRGQGTQVTVSS
notes: also called 2MFRO7
As for B1, the “PE-ELISA (ratio to uncoated well)” value in [1] amounted to 12.4; in [2], 14.1. The Kd in [3] stood at 70.9 nM; in experiment [4], 16.7 nM. Further, the koff in experiment [3] was determined as 0.0849 s⁻¹; in experiment [4], 0.0527 s⁻¹; in [6], 0.108 s⁻¹; in experiment [7] it was 0.0542 s⁻¹. The kon in experiment [3] was 1.2e+06 M⁻¹ s⁻¹; in [4] it was 3.15e+06 M⁻¹ s⁻¹. Moreover, the binding result in experiment [5] is reported as “no binding”. Also, the EC50 in experiment [8] was determined as 0.6 nM; in experiment [9], 11.6 nM; in [10], 1.5 nM; in experiment [11] it was 20.2 nM.

B2: VHH 3HFO26 (family 1) (VHH)
VHH: QVQLQESGGGLVQPGGSLRITCVASGFPFSTYYMSWVRQAPGKGLEWVSGINSNGGVIDYADSVKGRFTISRDNAKNTLYLQLNSLKPEDTALYFCARGRAFVATMPSSLRGQGTQVTVSS
For B2, the “PE-ELISA (ratio to uncoated well)” value amounted to 4.8 in experiment [1] and 4.9 in experiment [2]. The Kd in experiment [3] was found to be 662 nM; in [4] it was 7.86 nM. Also, the off-rate constant (koff) is 0.182 s⁻¹ in experiment [3], 0.0197 s⁻¹ in experiment [4], 0.0582 s⁻¹ in experiment [6] and 0.0135 s⁻¹ in [7]. Besides, the results for the on-rate constant (kon) in experiment [3] and in [4] were 275000 M⁻¹ s⁻¹ and 2.5e+06 M⁻¹ s⁻¹, respectively. The binding result in experiment [5] was “no binding”. Further, the half-maximal effective concentration (EC50) in [8] came out at 0.3 nM; in experiment [9], 20.3 nM; in experiment [10] it was 1.4 nM; in [11] it was 7 nM.

The values above are taken from patent US20250304677A1 (VIB VZW, published 2025).
